Key:
Conditions in all cases: tags: American Diagnostica 4500PC/4900PC, E. coli expressed
[1] = target: T1, TFPI (tissue factor pathway inhibitor, full-length) (Homo sapiens, UniProt P10646 SEQ:1-276); experiment: competition; meets binding-competition criterion; CAT no
Protocol: (§1) Each molecule was evaluated for binding to tissue factor pathway inhibitor (TFPI) in a binding-competition assay. For these experiments, 10 nM human TFPI (American Diagnostica, Stamford, Conn., catalog #4500PC) was incubated with trace amounts of radiolabeled ARC17480 and 5000 nM, 1666.67 nM, 555.56 nM, 185.19 nM, 61.73 nM, 20.58 nM, 6.86 nM, 2.29 nM, 0.76 nM or 0.25 nM of unlabeled competitor aptamer. ARC17480 was included as a competitor in every experiment as a control. For each molecule, the percentage of radiolabeled ARC17480 bound at each competitor aptamer concentration was used for analysis. The percentage of radiolabeled ARC17480 bound was plotted as a function of aptamer concentration and fit to the equation y=(max/(1+x/IC₅₀))+int, where y=the percentage of radiolabeled ARC17480 bound, x=the concentration of aptamer, max=the maximum radiolabeled ARC17480 bound, and int=the y-intercept, to generate an IC₅₀ value for binding-competition. The IC₅₀ of each aptamer was compared to the IC₅₀ of ARC17480 that was evaluated in the same experiment. A substitution was considered tolerated in the binding-competition assay if the IC₅₀ of that molecule was not more than 5-fold greater than that of ARC17480 evaluated in the same experiment. Tolerated substitutions are indicated in Table 38 as meeting the assay criteria (“yes”) or not meeting the assay criteria (“no”).

[2] = target: T1, TFPI (tissue factor pathway inhibitor, …); experiment: competition; fails binding-competition criterion; FXa yes
Protocol: as §1

[3] = target: T1, TFPI (tissue factor pathway inhibitor, …); experiment: competition; fails binding-competition criterion; CAT and FXa yes
Protocol: as §1

[4] = target: T1, TFPI (tissue factor pathway inhibitor, …); experiment: competition; fails binding-competition criterion; CAT yes
Protocol: The substituted ARC17480 molecules were assayed for binding and function. The assays used for this evaluation were the calibrated automated thrombogram (CAT) assay, a dot-blot binding-competition assay and a FXa activity assay. The results of these assays are summarized in Table 40 and depicted in FIG. 147. A mutation was considered tolerated for activity if it met the criteria of at least two of the three assays that were carried out. Mutations that are tolerated (“yes”) and not tolerated (“no”) are identified in Table 40. The experimental details and the criteria used for each assay are described in the following paragraphs. The molecules described in this example were first tested in the CAT assay and the dot-blot binding-competition assay. In most cases, molecules were only tested in the FXa assay if there was a discrepancy between the results in the CAT assay and the dot-blot binding-competition assay.
Each molecule was evaluated for binding to tissue factor pathway inhibitor (TFPI) in a binding-competition assay. […] The IC₅₀ of each aptamer was compared to the IC₅₀ of ARC17480 that was evaluated in the same experiment. A mutation was considered tolerated in the binding-competition assay if the IC₅₀ of that molecule was not more than 5-fold greater than that of ARC17480 evaluated in the same experiment. […]

[5] = target: T1, TFPI (tissue factor pathway inhibitor, …); experiment: competition; dot-blot; CAT and FXa criteria not met
Protocol: Each molecule was evaluated for binding to tissue factor pathway inhibitor (TFPI) in a binding-competition assay. For these experiments, 10 nM human TFPI (American Diagnostica, Stamford, Conn., catalog #4500PC) was incubated with trace amounts of radiolabeled ARC17480 and 5000 nM, 1666.67 nM, 555.56 nM, 185.19 nM, 61.73 nM, 20.58 nM, 6.86 nM, 2.29 nM, 0.76 nM or 0.25 nM of unlabeled competitor aptamer. ARC17480 was included as a competitor in every experiment as a control. For each molecule, the percentage of radiolabeled ARC17480 bound at each competitor aptamer concentration was used for analysis. The percentage of radiolabeled ARC17480 bound was plotted as a function of aptamer concentration and fit to the equation y=(max/(1+x/IC₅₀))+int, where y=the percentage of radiolabeled ARC17480 bound, x=the concentration of aptamer, max=the maximum radiolabeled ARC17480 bound, and int=the y-intercept, to generate an IC₅₀ value for binding-competition. The IC₅₀ of each aptamer was compared to the IC₅₀ of ARC17480 that was evaluated in the same experiment. A substitution was considered tolerated in the binding-competition assay if the IC₅₀ of that molecule was not more than 5-fold greater than that of ARC17480 evaluated in the same experiment. Tolerated substitutions are indicated in Table 37 as meeting the assay criteria (“yes”) or not meeting the assay criteria (“no”).

[6] = target: T1, TFPI (tissue factor pathway inhibitor, …); experiment: competition; competition with 20 nM ARC19499, plate assay
Protocol: In order to assess the affinity of ARC19498 towards TFPI protein, an ARC19499:TFPI binding competition assay was set up. Recombinant human TFPI protein (0.5 mg/mL) was diluted in DPBS to a final concentration of 15 μg/mL, and 100 μL was added to a 96-well Maxisorb plate and incubated overnight at 4° C. The TFPI solution was then removed and the plate was subsequently washed 3 times with 200 μL wash buffer (DPBS+0.05% Tween 20) at room temperature. The plate was then blocked with 200 μL of 10 mg/mL BSA in DPBS for 30 minutes at room temperature. The BSA blocking solution was then removed and the plate was washed again 3 times with 200 μL wash buffer. ARC19498 was serially diluted and mixed at different concentrations with 20 nM ARC19499 in DPBS in 0.1% BSA. The ARC19498:ARC19499 mixtures were added to the plate and incubated for 3 hours at room temperature. After washing 3 times with 200 μL wash buffer, 100 μL of 0.5 μg/mL rabbit monoclonal anti-PEG antibody (Epitomics) was added to the plate and incubated for 60 minutes at room temperature. The anti-PEG antibody solution was then removed and the plate was washed as described above. […] The assay plate was then read at 450 nm using a Victor³V 1420 multilabel counter (Perkin Elmer). […] The IC₅₀ was calculated based on 4-parameter logistics using Graphpad Prism 4 software.

[7] = target: T1, TFPI (tissue factor pathway inhibitor, …); experiment: competition; negative control, no competition with ARC17480 in dot blot

T1 sequence (P10646 29-304): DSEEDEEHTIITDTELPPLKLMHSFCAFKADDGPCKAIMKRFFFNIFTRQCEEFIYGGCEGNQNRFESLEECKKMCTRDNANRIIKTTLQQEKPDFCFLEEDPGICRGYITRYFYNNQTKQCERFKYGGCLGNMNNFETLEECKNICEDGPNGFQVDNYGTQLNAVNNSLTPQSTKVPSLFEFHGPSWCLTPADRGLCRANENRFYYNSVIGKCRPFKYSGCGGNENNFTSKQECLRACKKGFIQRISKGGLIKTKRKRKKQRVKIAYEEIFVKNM

GGAAUAUACUUGGCUCGUUAGGUGCGUAAUA (mixed, 2'-OMe A/G/U, 2'-deoxy C, 3' idT) [ARC33141]
binding signal [1]: ≤ 5 fold IC50 of ARC17480

GGAAUAUACUUGGCUCGUAGGUGCGUAUAUA (mixed, 2'-OMe A/G/U, 2'-deoxy C, 3' idT) [ARC33132]
binding signal [2]: > 5 fold IC50 of ARC17480

UAUACUUGGCUCGUUAGGUGCGUAU (mixed, 2'-OMe A/G/U, 2'-deoxy C, 3' idT) [ARC33889]
binding signal [3]: > 5 fold IC50 of ARC17480

GGAAUAUACUUGGCUCGUUAUGUGCGUAUAUA (mixed, 2'-OMe A/G/U, 2'-deoxy C, 3' idT) [ARC33169]
binding signal [4]: > 5 fold IC50 of ARC17480

GGAAUAUACUUGGCUCGTUAGGUGCGUAUAUA (XNA, 2'-OMe except dC9, dC14, dC16, dC25 and dT18; 3' idT) [ARC19462]
binding signal [5]: ≤ 5 fold IC50 vs ARC17480

GGAAUAUACTUGGCUCGUUAGGUGCGUAUAUA (XNA, 2'-OMe except dC9, dC14, dC16, dC25 and dT10; 3' idT) [ARC19456]
binding signal [5]: ≤ 5 fold IC50 vs ARC17480

GGAAUAUACUUGGCUCGUUAGGUGCGUAUAUA (mixed, 5'-hexylamine, 2'-OMe A/G/U, 2'-deoxy C, 3' idT) [ARC19498]
IC50 [6]: 20 nM

GGAAUAUACUUGGCUGCUUAGGUGCGUAUAUA (mixed, 2'-OMe A/G/U, 2'-deoxy C, 3' idT) [ARC32603]
binding result [7]: no binding

Source: US20110281938, “APTAMERS TO TISSUE FACTOR PATHWAY INHIBITOR AND THEIR USE AS BLEEDING DISORDER THERAPEUTICS” (Baxter Healthcare S.A., published 2011)
